B1: TPR t1 (parent)
chain: GACCAAUCUGCCCUCAGAGCUCGAGAACAUCUUCGGAUGCAGAGGAGGCAGGCUUCGGUGGCGCGAUAGCGCCAACGUCCUCAACCUCCAAUGCAUCCCACCACAUGAUGAUGCCUGAAGAGCCUUGGUUUUUUG

Variants of: B1
Test: polymerase ribozyme fitness, log enrichment relative to wild type (log ratio); higher = more active; in vitro selection for triplet polymerase activity
In short: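 Mutant libraries were PCR-built and transcribed for each subunit of a heterodimeric triplet polymerase ribozyme and selected for one round in triplicate at −7 °C, frozen, before gel excision of extended constructs and streptavidin-bead capture. Input and output libraries were Illumina-sequenced, keeping genotypes with ≥10 input reads and ≥1 read per output. Fitness is a logarithmic ratio of genotype to wild-type enrichment, in base 2, using inverse-variance-weighted replicate averages.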

Variant	polymerase ribozyme fitness (log ratio)
GACCAAUCUGGCCUCAGAGCUCGAGAACAUCUUCGGAUGCAGAGGAGGCAGGCUUCGGUGGCGCGAUAGCGCCAACGGCCUCAACCUCCAGUGCCUCCCACCACAUGAUGAUGCCUGAAGAGCCUUGGUUUUUUU [C11G U78G A91G A95C G135U]	-1.3
GACCAAUCUGGCCUCAGAGCUCGAGAACAUCUUCGGAUGCAGAGGAGGCAGGCUUCGGUGGCGCGAUAGCGCCAACGCCCUUAACCUCCAAUGCAUCCCACCACAUGAUGAUGCCUAAAGAGCCUUGGUUUUUUG [C11G U78C C82U G117A]	-0.181
GACCAAUCUGGCCUCAGAGCUCGAGAACAUCUUCGGAUGCAGAGGAGGCAGGCUUCGGUGGCGCGAUAGCGCCAACGCCCUCAACCUCCCAUGCAUCCCACCACAUGAUGAUGCCUGAAGAGCCUUGGUUUUUUG [C11G U78C A90C]	-0.723
GACCAAUCUGGCCUCAGAGCUCGAGAACAUCUCCGGAUGCAGAGGAGGCAGGCUUCGGUGGCACGAUAGCGCCAACGUCCUCAACCUCCAAUGCAUCCUACCACAUGAUGCUGCCUGAAGAGCCUUGGUUUUUUG [C11G U33C G63A C99U A111C]	-7.29
GACCAAUCUGGCCUCAGAGCUCGAGAACAUCAUCGGAUGCAGAGGAGUCAGGCUUCGGUGGCGAGAUAGCGCUAACGUCCUCAACCUCCAAUGCAACCCACCACAUGAUGAUGCCUGAAGAGACUUGGUUUUUUG [C11G U32A G48U C64A C73U U96A C123A]	-7.31
GACCAAUCUGGCCUCAGAGCUCGAGAACAUCUUCGGAUGCAGAGGAGGCAGGCUUCGGUGGCGCGAUAGCGCCAACGCCCUCAACCUCCAAUGCAUCCCACAACAUGAUGAUGCCUGUAGAGCCUUGGUUUUUUG [C11G U78C C102A A118U]	-1.3
GACCAAUCUGGCCUCAGAGCUCGAGAACAUCUUCGGAUGCAGAGGAGGCAGGCAUCGGUGGCGCGAUAGCGCCAACGUCCUCAACCUCCAAUCCAUCCCACCACAUGAUGAUGCCUGAAGAGCCUUGGUUUUUUG [C11G U54A G93C]	-0.558
GACCAAUCUGGCCUCAGAGCUCGAGAACAUCUCCGGAUGCAGAGGAGGCAGGCUUCGGUGGCGCGAUAGCGCUAACGUCCUCAACCUCCAAUGCAUCCUACCACAUGAUGCUGCCUGAAGAGCCUUGGUUUUUUG [C11G U33C C73U C99U A111C]	-6.85
GACCAAUCUGGCCUCAGAGCACGAGAACAUCUUCGGAUGCAGAGGAGGCAGGCUUCGGUGGCGCGAUAGCGGCAACGUCCUCAACCUCCAAUGCAUCCCACCACAUGAUAAUGCCUGAAGAGCCUUGGUUUUUUG [C11G U21A C72G G110A]	-3.29
GACCAAUCUGGCCUCAGAGCUCGAGAACAUCUUCGGAUGCAGAGGAGGCAGGCUUCGGAGGCGCGAUAGCGCCAACGUCCUCAAACACCAAUGCAUCCCACCACAUGAUGAUGCCUGAAGAGCCUUGGUUUUUUG [C11G U59A C85A U87A]	-1.45
GACCAAUCUGGCCUCAGAGCUCGAGAACAGCUUCGGAUGCAGAGGAGGCAGGCUUCGGUGGCGCGAUAGCGCCAACGUCCUCAACCUCCAAUGCAUCCCACCACAUGAUGAAGCCUGAAGAGCCUUGGUUUUUUG [C11G U30G U112A]	-4.82
GACCAAUCUGGCCUCAGAGCUCGAGAACAUCUUCGGAUGCAGAGGAGGCAGGCUUCGGUGGCGCGAUAGCGCCAACGCCCUCAACCUCCAAUGCAUCCCACCACAUGAUGAUGACUGAACAGCCUUGGUUUUUUG [C11G U78C C114A G120C]	-0.166
GACCAAUCUGGCCUCAGAGCUCGAGAACAUCAUCGGAUGCAGAGGAGUCAGGCUUCGGUGGCGCGAUAGCGCCAACGUCCUCAACCUCCAAUGCAACCCACCACAUGAUGAUGCCUGAAGAGACUUGGUUUUUUG [C11G U32A G48U U96A C123A]	-5.24
GACCAAUCUGGCCUCAGAGCGCGAGAACAUCUUCGGAUGCAGAGGAGGCAGGAUCCGGUGGCGCGAUAGCGCCAACGUCCUCAACCUCCAAUGCAUCCCACCACAUGAUGAUGCCUGAAGAGCCUUGGUUUUUUG [C11G U21G C53A U55C]	-0.805
GACCAAUCUGGCCUCAGAGCUCGAGAACAUCUUCGGAUGCAGAGGAGGCAGGCUUCGGUGGCGCGAUAGCGCCAACGUCCUCAACCUCCAAGGCAUCCCACCACAUGAUGAUGCCUGAAGAGCCUUGGUUUUUUG [C11G U92G]	-2.49
GACCAAUCUGGCCUCAGAGCUCGAGAACAUCUUCGGAUGCAGAGGAGGCAGGCCUCGGUGGAGCGAUAGCGCCAACGUCCUCAACCUCCAAUGCCUCCCACCACAUGAUGAUGCCUGAAGAGCCUUGCUUUUUUG [C11G U54C C62A A95C G128C]	-3.23
GACCAAUCUGGCCUCAGAGCUCGAGAACAUCCUCGGAUGCGGAGAAGGCAGGCUUCGGUGGCGCGAUAGCGCCAACGUCCUCAACCUCCCAUGCACCUCACCACAGGAUGUUGCCUGAAGAGCCUUGGUUUUUUG [C11G U32C A41G G45A A90C U96C C98U U106G A111U]	-6.91
GACCAAUCUGGCCUCAGAGCUCGAGAACAUCUUCGGAUGCAGAGGAGGCAGGCUACGGGGGCGCGAUAGCGCCAACGUCCUCAACCUCCAAUGCAUCCCACCACAGGAUGAUGCCUCAAGAGCCUUGGUUUUUUG [C11G U55A U59G U106G G117C]	-4.89
GACCAAUCUGGCCUCAGAGCUCGAGAACAUCUUCGGAUGCAGAGGAGGCAGGCCUCGGUGGCGCGAUAGCGCCAACGUCCUCAACCUCCAAUGCAUCCCACCACAUGAUGAUGCCUGAAGAGCCUUGGUUUUUUG [C11G U54C]	-0.0215
GACCAAUCUGGCCUCAGAGCUCGAGAACAUCAUCGGAUGCAGAGGUGGCAGGCUUCGGUGGCGCGAUAGCGCCAACGUCCUCAAACUCCAAUGCAUCCCACCACAUGAUGAUGCCUGAAGAGCCUGGGUUUUUUG [C11G U32A A46U C85A U126G]	-5.61
GACCAAUCUGGCCUCAGAGCUCGAGAACAUCUUCGGAUGCAGAGGAGGCAGGCUUCGGCGGCGCGAUAGCGCCAACGUCCUCAACCUCCAAUGCAUCCCACCACAUGAUGAUGCCUGAAGAGCCUUGGUUUUUUG [C11G U59C]	1.4

— the RNAGym collection of RNA variant scans (doi:10.1073/pnas.2313332121)
